Measured values: the nanobody polyreactivity screen of Harvey et al. (2022)

Assay: yeast display, Sf9 membrane polyspecificity reagent, FACS + sequencing; frameworks hold sequencing errors
How it was run: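 Sorting gates, low and high (top ~1%), were placed on anti-HA fluorescence to track expression and on streptavidin fluorescence to track reagent binding. A clone's polyreactivity label is taken from the gate it came out of. The reagent was 10% biotinylated, detergent-solubilized Sf9 membrane, applied for 1 hour at 4 °C to galactose-induced yeast display cells.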

Sequence	polyreactivity (PSR sort gate)
PVQLQESGGGLVQAGGSLRLSCAARGNIFDADIMGWYSQAPGKERELVACIADGGSTNYAHSVKGRFTISRDNAKNTVYLHMNSVKPEDTAVYYCAAIAYPDIPTCFDYYSDYFFRGQGTQVTVSS	low polyreactivity
QVQLQESGVGLVQAGGSLRLSCAASGYITARDAMVWYRQAPGKEREFVATIASGTTTYYADSVKGSFTISRDNEENTVYLQTNSLKPEDTAVYYCAAPTIQIYPFYYWGQGTQVTVSS	high polyreactivity
QVQLVESGGGLVQAGGSRSLSCAASGFTFQGNVMGWYTQAPGKERELVAAISGGGGRTYYADYVKGRFTISRDNAKYTVYLQMNSLIPEDTAVYYCIVRLLGSNRAGVRCDYWGQGTQVTVSS	high polyreactivity
QVQLVESGGGLVQAGGSLRLSCAASGSTLSDNAMGWYRQAPGKERELVARISGDGSTNYADSVKGRFTISRDNAKNTVYLQMNSLKPEDTAVYYCNAGTAGIYYYGKSDYWGQGTQVTVSS	low polyreactivity
QVQLVESGGGLVQAGGSLRLSCAASGSIFPVYAMGWYRQAPGKERELVAAISWIGGGTYYADSVKGRFTISRDNAKNTVYLQMNSLKPEDTAVYYCAAVPYTSEYDYWGQGTKVTVSS	high polyreactivity
QVQLVESGGGLVQAGGSHRLSCAPSGRTYYMYAMGWYRPAPGKEREFVAAITSGGSRNYADSVKGRFTISRDNAKKTVYLQMNSLKPEDTAVYYWARYRGYWGRYYGVDYGYWGQGTQVTVSS	high polyreactivity
QVQLVESGGGLVQAGGSLRLTCAASGSIFRRNAMGWYRQAPGKERELVAAISWSGGDTYYADSVKGRFTISRDNAKNTVYLQMNSLKPEDTAVYYCAAEYYRPYYGESYDYWGQGTQVTVSS	high polyreactivity
QVQLVESGGGLVQAGGSLRLSCAASGSTFWPYTMGWYRPATGKESELVAAISLSGGSTYYADSVKGRFTISRDNAKNSVYLQMNSLKPEDTAVYYCAAEGGYQNWHYLYEYWGQGTQVTVSS	low polyreactivity
QVQLVDSGGGLVQAGGSLRLSCAASGSTRRGYAMGWYRQAPGKERELVASISRRGGSTYYADSVKGRFTISRDNAKNTVYLQMKSLKTEVTAVYYCAATGRRGYGYGYWGQGTQVTVSS	high polyreactivity
QVQLVESGGGLVQAGGSLRLSCAASGSIFLTYTMGWYRQATGKERELVAAITDSDGSTSYADSVKGRFTISRDNAKNTVYLQMNSLKPEDTAVYYCAVEGYWYAGWYAMDYWGQGTQVTVSS	low polyreactivity
QVQLVESGGGLVQAGGSLRLSCAASGSTFPTYAMGWYRPAPGKERELVAAITRGGRTYYADSVKGRFTISRDNAKNTVYLQMNSLKPEDTAVYYCAAVYYGAAQYNYWGQGTQVTVSS	high polyreactivity
QVQHVESGGGLVQAGGSLRLSCAPSGSIFRPYAMGWSRQAPGKEMELVAAISFSGAGTYYADSVKGRFTISRDNAKNTVYLQMNSLTPEDTAVYYCNARRYTTYWLLYEYDYWGQGTQVTVSS	low polyreactivity
QVQLVESGGGLVQAGGSLRLSCAAYGLTFCLNAMGWYRQAPGKERYLVAAIRYSGGGTYADSVKGRFTISRDNAMNTVYLQMISLKPEDTAVYYCAALYYLGYPQFDYWGQGTQVTVSS	low polyreactivity
QVQLVESGGGLVQAGGSLRLSCAASGRTFNDYAMGWYRQATGKERELVAGITWRGGSTYYADSVKGRFTISRDNAKNTVYLQMNSLKPEDTAVYYCNAVPRRGYSRRDYWGQGTQVTVSS	high polyreactivity
QVQLVESGGCLVQAGGSLRLSCAASGLTFADNAMGWYRQAPGKERELVATISYSGGSTYYADSVKGRFTISRDNAKNTVYLQMNSLKPEDTAVYYCAADGNSTGVYLDGGEGFAYDYWGQGSQVTVSS	low polyreactivity
QVQLVESGGGLVQAGGSLRLSCAASGFTFGGYAMGWYRQAPGKEREMVAGISGSGGRTYYADSVKGRFTISRDNAKNTVYLQMNSLKPEDTAVYYCGADRASPYLEYYWGLGTQVTVSS	low polyreactivity

Sequence	polyreactivity (PSR sort gate)
QVQLVESGGGLVQAGGSLRLSCAASGRIFQWNAMGWYRQAPGKERELVATISSRGGSTYYADSVKGRFTISRDNANNTVYLQMNSLKPEDTAVYYCAARYYAKYRSYDYWGLGTQVTVSS	high polyreactivity
QVQLVESGGGLVQAGGSLRLSCAASGLIFGTYAMGWYRQAPGKERELVATINSSGGSTYYADSVKGRFTISRDNAKNTVYLQMNSLKPEDTAVYYCNTRRYDAYYDYDYWGQGTQVTVSS	low polyreactivity
QVQLQESFVGLVQAGGSLRLICAASGNIFPTDRMGWYRQAPGKELEFVATISHGGSTNYADSVKGRFTISRDNAKHTVYLQMNSLKPEDTAVYYCAVWSLGRWRNYYWGQGTQVTVIS	low polyreactivity
QVQLVESGGGLVQAGGSLRLSCAASGRTFYHYTMGWSSQAPGKERELVARITRRVGSTYYADSVKGRFTISRDNTKNTVYLQMNSLKPEDTAVYYCNAKSGVYRYLLDYWGQGTQVTVTS	high polyreactivity
QVQLVESGGGLVQAGGSLRLSCAASGFTFIHYGMGWYRQAPGKERELVAAITWRGDRTYADSVKGRFTISRDNAKNTVYLQMNSLKPEDTAVYYCAVGFYYFSSWYSYDYWGQGTQVTVSS	high polyreactivity
QVQLVESGGGLVQAGGSLRLSCAASGRIFRSYAMGWYRQAPGKERELVAAISSGVITYYADSVKGRFTISRDNEKNTVYLQMNSLKPEDTAVYYCNARWRFLYDYWGQGTQVTVSS	high polyreactivity
QVQLVESGGGLVQAGGSISLSCAASGFIFDDNAMGCYRQAPGKERELVAAISQGAGRTYYADSVKGRFTISRDNAKNTVYLQMNSVKPEDTAVYYCNSGRPKYWYGSKYDYWGQGTQVTVSS	low polyreactivity
QVQLVESGVGLVQAGGSLRLSCAASGSIFDINAMGWYRQAPGKERELVAVITDSGSTYYADSVKGRFTISRDNAKNTVYLQMNSLKPEDTAVYYCAAESSLLFFLMDYWGQGTQVTVSS	low polyreactivity
QVQLVESGGGLVQAGGSLRLSCAASGSTFTTYVMGWYRQAPGKERELVAAISRRGGRTYYADSVKGRFTISRDNAKNTVYLQMNSLKPEDTAVYYCNKVYPTYYYYRGGPTEYDYWGQGTQVTVSS	high polyreactivity
QVQLVESGGGLVQAGGSLRLSCAASGFTFISKAMGWYRQAPGKERELVAAISSSGGRTYYADSVKGRFTISRDHAKYTVYLQMNSLKPEDTALYYCNADRSLLYSRKIEYDYWGQGTQVTVSS	low polyreactivity
QVQLVESGGGLVQAGGSLRLTCAGSGSTYGKYAIGGYRQAPGKERQLVAAISYRGGRTFYADSVKGRFTISRDNAKNTVFLQMKSLKPEDTAVYYCAAYPGVSRGTGPRRYDYWGQGTQVTVSS	high polyreactivity
QVQLVESGGGIVQAGGSLRLSCAASGRTFYDYAMGWYRPAPGKERELVAAISRRAGSTYYADSVKGRFTISRDISKNSVYLQMISLNPEDTAVYFCAAAYSRRWWRGHHYAFDYWGQGTQVTVSS	high polyreactivity
QVQLVESGGGLVQAGGSLRLSCAASGRTFNTYAMGWYRQAPGKEREFVAAIRYSGDRTNYADSVKGRFTISRDNAKNTVYLQMNSLKPEDTAVYYCAAVNYFPWWSFEYWGQGTQVTVSS	low polyreactivity
QVQLVESGGGLVQAGGSLRLSCAASGIIFDGYAMGWYRQAPGKEREFVAAITSGGGSTSYADSVKGRFTISRDNAKNTVYLQMNSLKPEDTAVYSCAARSNRFYVRQRYGYWGQGTQVTVSS	high polyreactivity
QVQLVESGGGLVQAGGSLRLICAASGLTLYPYAMGWYRQAPGKERELVAAISGAGTRTYYADSVKGRFTISRDNAKNTVYLQMNSLKPEDTAVYYCAAVGFRPYDYWGQGTQLTVSS	high polyreactivity
